Source: the DeepSol protein solubility set

Test: soluble on expression in E. coli; label from the status in PepcDB or PDB records

Sequence | soluble on expression in E. coli
MGSDKIHHHHHHMVKRMKLPESKNLSLYWEKYSFLLLEGSNSKDKEIVSKIFQTVEKLQSDFGKISSILKERREQLIKKRKPFINLKMRVKGKLLLGAGNPSSIEVGITLSRNYGLPIIPGTAVKGAFASFLFEFERDKYESLAHIFGDTEREGDLIFLDAIPVSDLKFSLDIVNPHFQPYYMKEKLPPNDWYDPVPIKYLVVSSGVFWFTVLESRSGVIGNSEKELIKQRFVEMLKAYGLGAKTSYGYGRFEEPS | not soluble
MKASVRWVECPRDAWQGFSRFIPTEEKVAFLNELLEAGFAHLDLTSFVSPKWVPQMQDAEEVLKALPPPNGRTYLAIVANEKGLERALAAPNLTHVGYPFSLSETFQQRNTNRSIEASWPLVGAMVERTEGRLGLVVYLSMAFGNPYGDPWSVEAVLEALARLKEMGVREIALADTYGVAEPERIHEVLKAAVARFGPEGLGAHLHARPEGALAKVEAVLAAGVTWLEGALAGVGGCPFAGDELVGNLPTEVVLPHLEKRGLATGVDLSRLPLLAEEAARLKALYA | soluble
MSPLASRALSFLGALSLLTFAATPVLAESTPTAAPPQFAVESPKAASSLLLSVAHAGKRLVAVGDRGHILLSDDDGKTWTQAKVPTRQLLTSVFFVNERKGWAVGHDAQILVSDDAGSTWARQFEDLGREAPLLDIWFADEQHGLAVGAYGALLETRDGGQHWEDVSERLDNEDQFHLNAIAAVKDNGLLVVGEAGSLFRSKDWGATWEKLEGPYEGSLFGAIGTADAGGVLVYGLRGHLFRSADFGDSWEEIPLKAASGDLEFGLSDGALLADGRIVVVGHGGSVLESTDGGRSFSVFNRPDRLSLAGVSATGDGHLILVGQGGVHLAAANGAALEQQQLEHHHHHH | not soluble
AQGQRRAPLSVVFTEPQVASVGLSLRQIEDLYADQDAANYVVGQVSFEGQGRSRVMGKNKGLLNVYADRTSGEFLGAEMFGPAAEHIGHLLAWARQQQMTVQAMLTMPFYHPVIEEGLRTALRDAQQKLAIEKHDMNEFIMTHDNAMKLVI | not soluble
MSIESSATPTTPNAEALQLNSTEVRILGCLIEKQATNPETYPLTLNALVIACNQKTSRDPVMNLTQGQVGQSLRALEGRGLTRLVMGSRADRWEHKVDKGLELVPAQVILTGLLLLRGPQTVSELLTRSNRMHDFEDSEQVVHQLERLIARGLATLVPRQSGQREDRYMHLIGDPEDLQDLLAARQQAPERGNAASPAATQRLDELEARIAALEERLARLE | not soluble
MSLKTVFKPTLLAVLVAASAPVLAHSLIADTKAPSPTTKAFAAEQRNTLPFADQEDFKLVEKGLIAQQKDLEIKDANGKVVWELGNYRFLLDGLDYDSIHPSLQRQAQLNMHHGLYKVTDRIYQVRGYDLANITFVKGDTGWIVFDPLTVPATAKAALDFVNQELGERPVKAVVYSHAHADHFGGVKGIVSQEQVDRGEVPIIAPKGFLNHAVAENVLAGNAMSRRTTYQYGNVLPKGATGQVDAAIGKNVAQGEVSLIAPTKVISEQTETVVIDGVTMEFQNTPGTESPAEMNTYFPQFKALWMAENTVGGLHNVYTLRGAEVRDAKAWSKYINESIHMYAKEADVMFASHTWPRWGNDNINHFLRKQRDMYGYIHDQALRLANHGVTINEIQDEFHVPDVLAHEWYNRGYHGSYHRNAKAVINKYLGYFDMNPATLRPLAPTDAAPKYVAAMGGMDNVIKLGKEAFDKGEFRWCAEIVDKAVFAEPSNKQARYLQADCLEQLGYQSESAGERNTYLMGAYELRNGVPKVSATKTAGADTVVAMDTELFLDYLGVRLNGDKAAGIDYTINFVLPDVNEKFLVELENAHLNNLKGIQSENPDMTLTLNRAQLNQVLMGKTTIQQLAKEGKAKIEGNAQALTDIAGMLDNFEFWFNIIEPKTKEGGSHHHHHH | soluble
MGSDKIHHHHHHMKSILLFMIFVVCQLEGKKFSQDNFKVDYNYYLRKQDLHIIKTQNDLSNSWYLPPQKAPKEHSWVDFAKKYLNMMDYLGTYFLPFYHSFTPIFQWYHPNINPYQRNEFKFQISFRVPVFRHILWTKGTLYLAYTQTDWFQIYNDPQSAPMRMMNFMPELIYVYPINFKPFGGKIGNFSEIWIGWQHISNGVGGAQCYQPFNKEGNPENQFPGQPVIVKDYNGQKDVRWGGCRSVSAGQRPVFRLVWEKGGLKIMVAYWPYVPYDQSNPNLIDYMGYGNAKIDYRRGRHHFELQLYDIFTQYWRYDRWHGAFRLGYTYRINPFVGIYAQWFNGYGDGLYEYDVFSNRIGVGIRLNP | not soluble
MSQLFVRTGITFDSSQQALAHIGKEMLAKGVVHDSYPQALVEREASFPTGIALERHAVAIPHCEAVHAKSPAIYLIRPDKPVMFQQADDDEEIAVSLIIALIVENPAAQLKLLRRLFSELQNPSTLDALLSAPDAELAIRFQETILEPEQCVQV | not soluble
MSLIDLKPKVERVDAIQSFVSQETPIVTIHDSDGASGTGYSYTIGTGGPSVMALLEQTLVPALIGKDADRIDGIWRDLLFLTHATAVGPITSLALAAIDIALWDLRCKKMGLPLWKAAGGSRDRIPLYSTEGGWLHLETAALVEDALAMKEQGFRGSKIKIGRAHLSEDRARLGAIRAAVGDSYEIMTDANQGFTLSEAIRRAKVLEEFGIGWFEEPLPADDVLSHQELSRRTHVPIAVGESMYSLSQFKDYLQVGAAQIVQVDVARIGGITPWLKVAHLAEAHSVMVCPHFLMELHLPLVCAVPNAKWLEYIPQLDGVTRQNMQISNGDAVPSDEPGLGIDWDWDAITAQEIGARSIGGAEGHHHHHH | not soluble
GSHMSPKIVDAGTATVPHTMSTMKTADNRPASVYLKKDKPTLIKFWASWCPLCLSELGQAEKWAQDAKFSSANLITVASPGFLHEKKDGEFQKWYAGLNYPKLPVVTDNGGTIAQNLNISVYPSWALIGKDGDVQRIVKGSINEAQALALIRNPNADLGSLKHS | soluble
SNAMLHIDDAMIEDAVTPQAAQEVLHAAFLDFGRGSAAMQRRVRTEAGGVKLSTLGAVIPGQGVAGAKVYTTIKGQFQFVILLFSAADGRPLATCDAGTLTRKRTAACTVLAAGALARPRSSVLGLFGAGTQGAEHAAQLSARFALEAILVHDPYASPEILERIGRRCGVPARMAAPADIAAQADIVVTATRSTTPLFAGQALRAGAFVGAIGSSLPHTRELDDEALRRARAVVVEWREQTLSEAGDLVLAAPDTGLDAKVVELADVLAGRAAARQADEDIVIYKSVGVGLEDVALAGYAYRRLAAQRGWPAP | soluble
MSTSAGSSGAAASEPTTAKSLTYSETMNDLRKGSLFGRQKESLATTDGGPQPSSLDDKSQQFKNPIESDKPGPSTEPGRSAKIEQEAPAPTLKKSETPPAFGLSGVVKKVPSVYFPIFNKLGVKIPGFLPSLRETKINAPHIVYDVRRLRLLQKRQRPIKQLWLRLQFQLRFQMQLLKAQTKSSRVPDNASAVMWLHYIEVIEDHCTADC | not soluble
MGSSHHHHHHSSGLVPRGSHMAAPIRFFELNTGAKLPCVGLGTYAMVATAIEQAIKIGYRHIDCASIYGNEKEIGGVLKKLIGDGFVKREELFITSKLWSNDHLPEDVPKALEKTLQDLQIDYVDLYLIHWPASLKKESLMPTPEMLTKPDITSTWKAMEALYDSGKARAIGVSNFSSKKLTDLLNVARVTPAVNQVECHPVWQQQGLHELCKSKGVHLSGYSPLGSQSKGEVRLKVLQNPIVTEVAEKLGKTTAQVALRWGLQTGHSVLPKSSSGARLKENLDVFDWSIPEDLFTKFSNIPQEKFCRATEFAHETHGFYKTIEELWDGEI | soluble
IGVFLKDKQKVLVVEESEPFIEEQIRIEGNVYGKKTGHLPYGQVTSKDIDFALEHIEEEKVSRPADPGLIESRKKSRASICEDCPYLPLYNFLRISGVRVAGDMGCSVRSAPEPLSAVDVSFALGSAISVACGFERKGIAVIGDFALAHSGILGLLNAVSEGHEVLVLVLQNEVAAMTGGQKVPDLRKVIEAIVPDVSVFDMDGRKEKEQASGSELSDLITEKLALPGISVIFI | not soluble
MSLSTIEDVAKLAGLSRTTVSRVINNHPYVSDEKKKRVQLAMKHLGFVPNSAARRLRKQKTETIAVLVPRITNPFFSRFIEAIEIAASEHKYKLIICQTRYLPEKEMEYLQLLSTKQVDGIILCSLENQWEDVEPYLQHGPIVLCNEYIEEANVPTVKFDHAQGAYIAAKHVLEQGYRNLIFCRGNETKVVSQQRKMGFLRAITEKSRQVEAIDFLENAFSWEDGKRIFHEVLKDKKNPTAILAGGDEVAAGIISEAKRHDWSIPDDLAVIGFDNQILSQITEPGITTIEQPIDEMARKVVDLMMDKIHTKNYRKKELYEFELELLVKGSTMKDTMLLAEGHHHHHH | not soluble
